Measurements taken from publication PMC12371199, “Identification of c‐Met on Tumor Cells as a Novel Receptor for B7‐H3 Entails Implications for Cancer Cell Stemness and Targeted Therapy” (MedComm, 2025).

How the values were obtained:
[1] = target: T1, purified recombinant extracellular domain of c‐Met (from Met1 to Thr932), c‐Met‐his (human, UniProt P08581 25-932); assay: SPR
T1 chain: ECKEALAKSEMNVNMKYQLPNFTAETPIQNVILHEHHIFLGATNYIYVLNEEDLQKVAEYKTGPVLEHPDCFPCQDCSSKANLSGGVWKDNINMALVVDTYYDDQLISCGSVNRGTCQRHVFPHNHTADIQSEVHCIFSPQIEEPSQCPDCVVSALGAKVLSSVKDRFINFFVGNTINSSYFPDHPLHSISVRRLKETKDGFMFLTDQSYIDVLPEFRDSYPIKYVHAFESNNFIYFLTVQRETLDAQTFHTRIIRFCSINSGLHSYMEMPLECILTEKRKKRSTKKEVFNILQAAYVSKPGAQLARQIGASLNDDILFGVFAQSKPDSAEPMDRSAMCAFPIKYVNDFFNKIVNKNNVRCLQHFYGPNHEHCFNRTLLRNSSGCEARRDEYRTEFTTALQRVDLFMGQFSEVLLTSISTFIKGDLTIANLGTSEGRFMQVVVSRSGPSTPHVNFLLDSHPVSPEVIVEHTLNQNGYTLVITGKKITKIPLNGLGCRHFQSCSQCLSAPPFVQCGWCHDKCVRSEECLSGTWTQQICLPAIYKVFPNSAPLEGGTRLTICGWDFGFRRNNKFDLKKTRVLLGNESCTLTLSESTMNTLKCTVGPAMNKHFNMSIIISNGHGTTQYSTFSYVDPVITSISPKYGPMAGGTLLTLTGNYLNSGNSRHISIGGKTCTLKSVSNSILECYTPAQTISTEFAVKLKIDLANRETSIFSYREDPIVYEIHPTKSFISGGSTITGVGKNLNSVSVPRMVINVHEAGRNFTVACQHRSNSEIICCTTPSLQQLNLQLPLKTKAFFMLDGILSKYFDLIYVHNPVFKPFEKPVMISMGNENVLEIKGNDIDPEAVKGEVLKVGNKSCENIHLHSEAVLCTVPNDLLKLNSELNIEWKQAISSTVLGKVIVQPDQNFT

[2] = target: T2, purified recombinant extracellular domain of c‐Met (from Met1 to Thr932), c‐Met‐his (human, UniProt P08581 25-932); assay: SPR; Biacore T200; c‐Met‐his immobilised on CM5 chip (10 mM sodium acetate pH 4.5); B7‐H3‐his as analyte in serial doubling concentrations up to 100 µM; 30 µL/min, 25°C; 1:1 model, global fit; settings: both partners purified
T2 construct: signal peptide in the construct; c-Met (hepatocyte growth factor receptor), extracellular domain, Met1 to Thr932; The limits and supplier are told for the SPR; source: bought: Sino Biological (Beijing, China)

koff [1]: 0.000707 s⁻¹ | Kd [2]: 1.66 µM
B1: purified recombinant extracellular domain of B7‐H3 (from Gly27 to Thr461), B7‐H3‐his (domain or fragment, human, UniProt Q5ZPR3 27-461, looked up)
chain: GALEVQVPEDPVVALVGTDATLCCSFSPEPGFSLAQLNLIWQLTDTKQLVHSFAEGQDQGSAYANRTALFPDLLAQGNASLRLQRVRVADEGSFTCFVSIRDFGSAAVSLQVAAPYSKPSMTLEPNKDLRPGDTVTITCSSYQGYPEAEVFWQDGQGVPLTGNVTTSQMANEQGLFDVHSILRVVLGANGTYSCLVRNPVLQQDAHSSVTITPQRSPTGAVEVQVPEDPVVALVGTDATLRCSFSPEPGFSLAQLNLIWQLTDTKQLVHSFTEGRDQGSAYANRTALFPDLLAQGNASLRLQRVRVADEGSFTCFVSIRDFGSAAVSLQVAAPYSKPSMTLEPNKDLRPGDTVTITCSSYRGYPEAEVFWQDGQGVPLTGNVTTSQMANEQGLFDVHSVLRVVLGANGTYSCLVRNPVLQQDAHGSVTITGQPMT
notes: B7-H3 (CD276), human, extracellular domain, Gly27 to Thr461; The limits and supplier are told for the SPR; also called soluble recombinant B7‐H3; source: bought: BioIntron (Taizhou, China)
